Results as given in patent US20240301386A1, “Soluble Guanylyl Cyclase (GC1) Mimetic Polypeptides and Methods of Use Thereof” (Rutgers, the State University of New Jersey, priority 2023, published 2024).

What was measured:
caspase-3 = experiment: Caspase-3 activity assay in Jurkat T cells ± etoposide; assay type: cell-based, human; details: etoposide 8 μM 16 h compared to samples not treated with ETO
Protocol: The cells in suspension in 2 ml serum-free medium were treated with either 70% DMSO (20 μL, 0.7% final), scramble peptide, or inhibitory peptide at a final concentration of 10 μM and incubated at 37° C. for 1 h. After incubation, the cells were washed twice and incubated in complete medium at 37° C. for 8 h. The cells were then treated with (or without) etoposide (ETO) at 8 μM final at 37° C. for 16 h.
For Caspase-3 activity assays: After 16 h incubation, the cells were washed twice with cold PBS and lysed in the supplier's 1× lysis buffer (at 10 μL per 10^6 cells). After 15 min incubation on ice, the lysates were centrifuged at 16,000 g for 15 min at 4° C. and the supernatant collected. Caspase-3 activity was measured following the supplier's instructions (CASP3C-1KT, Sigma) after 2 and 3 h incubation.
Whether these observations correlated with an increased caspase-3 activity was next assessed with a colorimetric assay based on cleavage of the substrate […], under the same above conditions. […] It was concluded that disrupting the SNO-GC1→oTrx1→procaspase-3 transnitrosation cascade using a peptide inhibitory of the GC1/Trx1 interaction promotes Jurkat T-cells apoptosis.

Jurkat T cells = experiment: Biotin-avidin switch assays of S-nitrosation in Jurkat T cells ± etoposide; assay type: cell-based, human
Protocol: Jurkat cells were cultured in a 6-well plate at the density of 0.25×10^6/ml in complete medium RPMI 1640 from Corning (10-040-CV) supplemented with 10% FBS and Pen-Strep and incubated at 37° C. with 5% CO2 for 24 h. The cells were collected by centrifuging at 1000 g for 5 min, washed twice with serum-free medium, and re-suspended with 2 ml serum-free medium prior to peptide treatment.
Free thiols of proteins were blocked in lysis-blocking buffer containing 50 mM Tris, pH 7.5, 150 mM NaCl, 1% Triton X-100, 1 mM EDTA, 2% SDS, 0.1 mM neocuproine, 0.2 mM PSMF, and 40 mM N-ethylmaleimide (NEM) at 50° C. for 30 min in the dark. Excess NEM was removed using cold acetone precipitation. The protein pellets were generated by centrifugating at 14000 g for 10 min at 4° C. and washed 3 times using cold acetone. […]
For biotin-avidin switch assays: After 16 h incubation, the cells were washed twice with cold PBS and lysed in lysis-blocking buffer containing 50 mM Tris, pH 7.5, 150 mM NaCl, 1% Triton X-100, 1 mM EDTA, 2% SDS, 0.1 mM neocuproine, and 40 mM NEM supplemented with PMSF and protease inhibitor cocktail. The protein concentration was measured using the Bradford method. 50 μg of each lysate was analyzed by Western blot as starting material (inputs) and 200 μg proteins of each sample were subjected to the biotin switch and avidin assays, as described elsewhere herein. […]

[1] = biological target: T1, Oxidized Trx1 (oTrx1), recombinant human Trx1 treated with 100 µM diamide, P10599
T1 chain: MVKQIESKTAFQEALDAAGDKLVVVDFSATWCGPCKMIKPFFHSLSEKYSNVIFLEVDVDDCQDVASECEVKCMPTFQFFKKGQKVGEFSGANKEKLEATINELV

[2] = biological target: T2, Oxidized GC1 (oGC1), recombinant human GC1 treated with 100 µM diamide, Q02153
T2 chain 1: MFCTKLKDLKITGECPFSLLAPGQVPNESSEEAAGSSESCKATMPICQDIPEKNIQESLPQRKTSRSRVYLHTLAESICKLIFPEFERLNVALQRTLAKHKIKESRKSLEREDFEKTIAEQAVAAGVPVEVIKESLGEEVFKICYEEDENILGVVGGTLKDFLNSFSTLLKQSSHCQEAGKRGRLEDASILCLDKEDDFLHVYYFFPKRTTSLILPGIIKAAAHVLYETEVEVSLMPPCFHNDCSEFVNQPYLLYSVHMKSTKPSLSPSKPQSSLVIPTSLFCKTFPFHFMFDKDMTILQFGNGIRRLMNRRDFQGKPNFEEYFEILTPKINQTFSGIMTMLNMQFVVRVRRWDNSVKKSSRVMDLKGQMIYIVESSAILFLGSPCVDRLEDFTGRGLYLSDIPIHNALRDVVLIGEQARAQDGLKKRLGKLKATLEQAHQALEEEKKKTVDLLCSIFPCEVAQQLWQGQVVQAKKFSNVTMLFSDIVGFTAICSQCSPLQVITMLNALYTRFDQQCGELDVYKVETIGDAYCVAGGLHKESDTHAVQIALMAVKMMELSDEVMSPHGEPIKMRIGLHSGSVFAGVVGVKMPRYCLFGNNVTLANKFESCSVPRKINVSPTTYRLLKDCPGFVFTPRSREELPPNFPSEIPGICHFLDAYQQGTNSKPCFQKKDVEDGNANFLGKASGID
T2 chain 2: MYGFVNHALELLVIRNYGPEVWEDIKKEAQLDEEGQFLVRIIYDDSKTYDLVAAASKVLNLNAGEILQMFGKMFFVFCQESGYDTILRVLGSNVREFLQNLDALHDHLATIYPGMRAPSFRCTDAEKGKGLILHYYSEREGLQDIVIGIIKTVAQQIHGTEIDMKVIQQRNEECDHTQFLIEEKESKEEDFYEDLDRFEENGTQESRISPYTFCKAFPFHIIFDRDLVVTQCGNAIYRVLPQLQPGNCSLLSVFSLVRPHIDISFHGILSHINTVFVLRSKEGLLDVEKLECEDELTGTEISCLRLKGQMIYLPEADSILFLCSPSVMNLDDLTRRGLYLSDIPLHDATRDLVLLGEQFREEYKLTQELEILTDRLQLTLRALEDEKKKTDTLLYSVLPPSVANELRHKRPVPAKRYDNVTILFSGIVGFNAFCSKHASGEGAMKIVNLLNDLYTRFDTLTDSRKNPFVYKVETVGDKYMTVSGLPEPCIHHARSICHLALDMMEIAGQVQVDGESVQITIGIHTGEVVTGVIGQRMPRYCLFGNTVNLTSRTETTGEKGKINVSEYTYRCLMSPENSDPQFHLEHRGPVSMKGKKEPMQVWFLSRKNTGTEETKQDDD

[3] = biological target: T3, Purified recombinant human soluble guanylyl cyclase (GC1), Q02153
T3 chain 1: T2 chain 1
T3 chain 2: T2 chain 2

COc1cc([C@@H]2c3cc4c(cc3[C@@H](O[C@@H]3O[C@@H]5CO[C@@H](C)O[C@H]5[C@H](O)[C@H]3O)[C@H]3COC(=O)[C@H]23)OCO4)cc(OC)c1O [Etoposide]
caspase-3 activity in Jurkat cells treated with ETO (caspase-3): significant increase
global levels of S-nitrosation in Jurkat T cells (Jurkat T cells; peptide 10 μM 1 h, etoposide 8 μM 16 h (FIG. 8A left panel)): did not affect
SNO-procaspase-3 level in Jurkat T cells (Jurkat T cells; peptide 10 μM 1 h ± etoposide 8 μM 16 h, avidin purified, compared to DMSO and scramble peptide (FIG. 8A right panel)): slightly reduced

B1: Reduced GC1 (rGC1), recombinant human GC1 treated with 10 mM DTT (protein)
chain 1: T2 chain 1
chain 2: T2 chain 2
conversion of oTrx1 dimers into monomers (non-reducing gel, Western blot) [1]: rGC1 converted most of oTrx1 dimer into Trx1 monomers
conversion of oTrx1 dimers into monomers in the presence of 125 µM scramble peptide [1]: the rGC1-dependent conversation of Trx1 from dimers to monomers was maintained in the presence of the scramble peptide

B2: Reduced Trx1 (rTrx1), recombinant human Trx1 treated with 10 mM DTT (protein)
chain: T1 chain
conversion of oGC1 multimers into monomers (non-reducing gel, Western blot) [2]: rTrx1 converted oGC1 multimers into monomers to some extent
conversion of oGC1 multimers into monomers in the presence of 125 µM scramble peptide [2]: the reducing effect of Trx1 was maintained with the scramble peptide as control

B3: Thioredoxin 1 (Trx1) protein, purified (protein)
chain: T1 chain
NO-stimulated GC1 activity (1 µM DEA-NO), purified GC1 + Trx1 1:7 [3]: FIG. 3A first confirmed the increased NO-stimulated activity of GC1 by Trx1
NO-stimulated GC1 activity, purified GC1 + Trx1 in the presence of peptide 1 (25 µM) [3]: Trx1-dependent increase of NO-stimulated GC1 activity was similarly blunted by the 3 peptides
NO-stimulated GC1 activity, purified GC1 + Trx1 in the presence of peptide 2 (25 µM) [3]: Trx1-dependent increase of NO-stimulated GC1 activity was similarly blunted by the 3 peptides
NO-stimulated GC1 activity, purified GC1 + Trx1 in the presence of peptide 3 (25 µM) [3]: Trx1-dependent increase of NO-stimulated GC1 activity was similarly blunted by the 3 peptides
NO-stimulated GC1 activity, purified GC1 + Trx1 in the presence of the scramble peptide (25 µM) [3]: the scramble peptide had no effect
